These results are taken from the supplement of paper PMC10126150.

± gives the standard deviation of the averaged measurements.
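Also: ATP exposure 15 min at 22 °C before imaging.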

The test system of the data set is ATP. Briefly: switch fluorescence ratio, 500 uM ATP over buffer (Cy3 cluster intensity, sum of 5 cycles each) (fold (ratio)); higher = stronger signal-on switching upon ATP binding; sequences stand for … in TCGTCGGCAGCGTCAGATGTGTATAAGAGACAGTTTTTTTTTTTTTTTTTTTTTTTTT…TC. To be noted: aptamer strand: ATP DNA aptamer (quencher-CACCTGGGGGAGTATTGCGGAGGAAGG + anchor), 100 nM annealed; ATP concentration: 500 uM. The procedure, abridged: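 Clusters with intensities outside 100-1000 RFU were excluded. The remaining Cy3-labelled switching-strand clusters on a modified Illumina MiSeq flow-cell had been annealed to 100 nM quencher-labelled ATP aptamer and imaged in selection buffer, then after 15 min with 500 uM ATP at 22 °C, for five cycles separated by NaOH stripping and re-annealing. The fluorescence ratio, averaged per switch-domain sequence, is each cluster's summed target-cycle Cy3 intensity over its summed buffer-cycle Cy3 intensity.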
Turning to TGGTGTCGGG, the switch fluorescence ratio worked out at 0.998 ± 0.013.

As for ACCTGGGGAT, the switch fluorescence ratio was 1.028 ± 0.0099.

For the sequence TCATCCCTAT, the switch fluorescence ratio was 1.1 ± 0.15.

For TGTTAAACGG, the switch fluorescence ratio was found to be 1.01 ± 0.039.

GTCTTTTTTT: the switch fluorescence ratio worked out at 0.96 ± 0.045.

On to AGAGAGAGTT, for which the switch fluorescence ratio stood at 0.974 ± 0.032.

Regarding TTTTCCTGAC, the switch fluorescence ratio was determined as 1.64 ± 0.25.

On to TCGTTTGTAT, for which the switch fluorescence ratio turned out to be 0.972 ± 0.005.

TTATAAAGAG: the switch fluorescence ratio was 1.01 ± 0.029.

With ACTTTTGCTG, the switch fluorescence ratio amounted to 0.983 ± 0.019.

As for CTGGAAGTTT, the switch fluorescence ratio amounted to 0.952 ± 0.044.

On to AGATGAGATA, for which the switch fluorescence ratio was found to be 1.005 ± 0.0037.

For TGCTACACGT, the switch fluorescence ratio was 1.01 ± 0.027.

Take GGCTCTGAGG: the switch fluorescence ratio stood at 0.972 ± 0.02.

As for AATTTGCGAC, the switch fluorescence ratio was 1.05 ± 0.011.

Consider GTGATAGTGG, for which the switch fluorescence ratio amounted to 0.9385 ± 0.0022.

As for GTCACCGACT, the switch fluorescence ratio was determined as 1 ± 0.013.

For the sequence CGGATCTCGC, the switch fluorescence ratio came to 1.03 ± 0.01.

Turning to GCTGGGAGTT, the switch fluorescence ratio was 1 ± 0.054.

Regarding CGACGTGAGT, the switch fluorescence ratio came out at 1.036 ± 0.0042.

As to AGAAGGGCGG, the switch fluorescence ratio came out at 0.99 ± 0.037.

With GCGATGGTCG, the switch fluorescence ratio came out at 0.937 ± 0.14.

For the sequence TTTTGTGCTT, the switch fluorescence ratio came to 1.04 ± 0.074.

On to GTTGTAATAG, for which the switch fluorescence ratio turned out to be 1.09 ± 0.031.

As to GTCGGTTGGG, the switch fluorescence ratio worked out at 0.99 ± 0.026.

Turning to TGGGTAGGGT, the switch fluorescence ratio came out at 0.991 ± 0.036.

Take GTGGATAATG: the switch fluorescence ratio was 0.996 ± 0.056.

With TGCTGTTGGA, the switch fluorescence ratio came to 0.953 ± 0.011.

With TATCTGTCAA, the switch fluorescence ratio worked out at 1.11 ± 0.032.

CCGGACAGGT: the switch fluorescence ratio amounted to 1.13 ± 0.023.

For the sequence CAGGGGAGCA, the switch fluorescence ratio was determined as 1.02 ± 0.039.

Consider AAATCCGCG, for which the switch fluorescence ratio was determined as 1.28 ± 0.031.

Consider GGGAAGAATA, for which the switch fluorescence ratio was 0.986 ± 0.018.

For GGAACGTTGG, the switch fluorescence ratio was 0.973 ± 0.045.

As for ATTTGGGACT, the switch fluorescence ratio turned out to be 1.03 ± 0.036.

As for GTGGTTGTAT, the switch fluorescence ratio was 0.974 ± 0.015.

Consider TTAGTGTCGA, for which the switch fluorescence ratio came out at 1.02 ± 0.04.

GTTTTAAGGG: the switch fluorescence ratio was 0.99 ± 0.016.

For the sequence CGTTCACCTG, the switch fluorescence ratio was found to be 0.996 ± 0.038.

As for CTCAGGACAG, the switch fluorescence ratio is 0.995 ± 0.044.

As for GATTACGGCC, the switch fluorescence ratio came to 1.06 ± 0.035.

Consider GTTAACGGGT, for which the switch fluorescence ratio turned out to be 0.997 ± 0.02.

As to TTAAGGGGAA, the switch fluorescence ratio was found to be 1.06 ± 0.063.

As to GAAGGGGCGA, the switch fluorescence ratio came to 0.972 ± 0.018.

Regarding GCAGGTACGC, the switch fluorescence ratio is 1.05 ± 0.033.

As for TAGATGCTTT, the switch fluorescence ratio amounted to 0.96461 ± 0.00038.

TAGGGGGGTT: the switch fluorescence ratio turned out to be 1 ± 0.04.

CGGTAGCGCC: the switch fluorescence ratio was determined as 0.99 ± 0.06.

With TTTGATACAG, the switch fluorescence ratio was determined as 1.012 ± 0.0071.

On to GAGGGAGCAG, for which the switch fluorescence ratio came out at 1.01 ± 0.017.

As to CTGTTTTGGT, the switch fluorescence ratio was found to be 1.008 ± 0.0028.

ATTTTAAAGA: the switch fluorescence ratio was 1.009 ± 0.0062.

On to ATAAAAAGGA, for which the switch fluorescence ratio is 1.0058 ± 0.00029.

With GCGGAGCATG, the switch fluorescence ratio was found to be 1.1036 ± 0.00099.

AGATAAACG: the switch fluorescence ratio was 0.984 ± 0.056.

Turning to ATCGGAAAAA, the switch fluorescence ratio is 1.02 ± 0.026.

With ATATCATGTC, the switch fluorescence ratio amounted to 0.9895 ± 0.0032.

GGTTTTTATT: the switch fluorescence ratio came out at 0.992 ± 0.0092.

Take CAGGGCGGAA: the switch fluorescence ratio stood at 1.02 ± 0.019.

As for CGGGTACATG, the switch fluorescence ratio came out at 1.03 ± 0.048.

With AGTTTGGGGG, the switch fluorescence ratio was determined as 0.966 ± 0.029.

For the sequence AAATAATTAG, the switch fluorescence ratio turned out to be 1.01 ± 0.016.

On to AAAAAAATTC, for which the switch fluorescence ratio was determined as 1.05 ± 0.079.

In the case of TTTCACACGG, the switch fluorescence ratio is 1.04 ± 0.066.

As for CGCCAGCAGC, the switch fluorescence ratio was 1.6 ± 0.035.

Regarding TTCTGGGCGG, the switch fluorescence ratio is 1.02 ± 0.032.

For the sequence GACTGGGGAG, the switch fluorescence ratio came to 0.991 ± 0.056.

GCAGTCCGTC: the switch fluorescence ratio came out at 1.06 ± 0.019.

AATGGGGGAA: the switch fluorescence ratio came to 0.9881 ± 0.0087.

Turning to CAATGGGGGC, the switch fluorescence ratio stood at 1.02 ± 0.045.

TTTGGTGCTT: the switch fluorescence ratio was determined as 0.974 ± 0.045.

Take GCGGATTGAA: the switch fluorescence ratio is 0.988 ± 0.044.

Regarding GATTAAATAT, the switch fluorescence ratio is 1.02 ± 0.012.

TTTGTAGAAC: the switch fluorescence ratio stood at 1.02 ± 0.036.

Consider TGTGGGCGC, for which the switch fluorescence ratio is 1.01 ± 0.098.

TTAGAAGGCA: the switch fluorescence ratio worked out at 1.03 ± 0.036.

With TCCAGTGGCT, the switch fluorescence ratio stood at 1 ± 0.017.

For CTTTGGGCCC, the switch fluorescence ratio was determined as 0.98271 ± 0.0009.

Consider AGGTAGCTGT, for which the switch fluorescence ratio was found to be 1.04 ± 0.053.

With ATGCAACGTC, the switch fluorescence ratio was 0.989 ± 0.049.

With CCTGGGCGGT, the switch fluorescence ratio amounted to 1.32 ± 0.031.

As for CGGCGCCTGC, the switch fluorescence ratio stood at 1.08 ± 0.039.

With GTGCAGGGGC, the switch fluorescence ratio worked out at 1.04 ± 0.019.

As for CGTGGGGGAT, the switch fluorescence ratio is 1.01 ± 0.029.

As for GGGCTAGTAC, the switch fluorescence ratio turned out to be 1.13 ± 0.017.

In the case of TGCAAAGAAA, the switch fluorescence ratio amounted to 1.15 ± 0.12.

As to TGGGGGCCGT, the switch fluorescence ratio is 1.02 ± 0.14.

AGAATAGGCG: the switch fluorescence ratio was determined as 1.02 ± 0.022.

Regarding AGGAAGAAAG, the switch fluorescence ratio is 1.042 ± 0.0089.

Consider GGGGGAACGT, for which the switch fluorescence ratio is 1.05 ± 0.037.

As for TTTAGAAAAC, the switch fluorescence ratio came out at 0.984 ± 0.037.

CGGTTTTTTA: the switch fluorescence ratio turned out to be 0.964 ± 0.025.

For GACACAGGGG, the switch fluorescence ratio is 1.06 ± 0.047.

Regarding TTTTTCTATA, the switch fluorescence ratio worked out at 0.994 ± 0.066.

On to TGGGGGTGTC, for which the switch fluorescence ratio worked out at 1.03 ± 0.024.

For GGGGGCGTTG, the switch fluorescence ratio was determined as 1.01 ± 0.02.

As for TCATTTATGG, the switch fluorescence ratio was 0.999 ± 0.023.

As for TCGAGAGTAG, the switch fluorescence ratio stood at 0.948 ± 0.016.

For the sequence GGTCCAACTG, the switch fluorescence ratio worked out at 0.987 ± 0.036.

As to TAAGGAAAAG, the switch fluorescence ratio came to 1.01 ± 0.05.

As for TCATAGGTGG, the switch fluorescence ratio was found to be 1 ± 0.034.

Consider ATTTGTTTTC, for which the switch fluorescence ratio was found to be 0.953 ± 0.013.

In the case of TTTTTATAGC, the switch fluorescence ratio is 1.01 ± 0.044.

Regarding GGAGCATTTT, the switch fluorescence ratio came out at 1.78 ± 0.88.

As to CATGGTCATG, the switch fluorescence ratio was determined as 1 ± 0.017.

As for GGCACGCGAG, the switch fluorescence ratio amounted to 1.03 ± 0.05.

For ACGGGTTGTT, the switch fluorescence ratio was determined as 1.02 ± 0.021.

With AAGGGGGACT, the switch fluorescence ratio was 1.04 ± 0.039.

Take AGTGGCATGC: the switch fluorescence ratio is 0.985 ± 0.023.

In the case of AGTGCTGTGC, the switch fluorescence ratio turned out to be 0.997 ± 0.012.

With CGGGGTTGGC, the switch fluorescence ratio was determined as 1.02 ± 0.061.

As for CTTAAAGGTC, the switch fluorescence ratio turned out to be 1.02 ± 0.052.

CATATGTTAG: the switch fluorescence ratio was determined as 1 ± 0.038.

In the case of ATAGGTCTCA, the switch fluorescence ratio was 1 ± 0.013.

On to TTAAGATTCC, for which the switch fluorescence ratio worked out at 1.1 ± 0.028.

CGTTGGGTGG: the switch fluorescence ratio was determined as 1.02 ± 0.076.

For GAGATGATTT, the switch fluorescence ratio is 1.02 ± 0.063.

As to CCAGTATGTT, the switch fluorescence ratio stood at 0.993 ± 0.024.

For CGTCGTAGTG, the switch fluorescence ratio was 0.989 ± 0.016.

With ATGTGTGTTG, the switch fluorescence ratio is 1.04 ± 0.046.
